The results in this text go back to patent publication US20240034774A1.

Common to all, as to experiment: cell-based or functional assay
The target in test [1] is HIV-1 envelope glycoprotein gp120 of virus VS001 (HIV-1).
Test [2] has as its target HIV-1 envelope glycoprotein gp120 of virus 92US727 (HIV-1).
Test [3] has as its target HIV-1 envelope glycoprotein gp120 of virus 7141 (HIV-1).

B1: 3.1.9-1 (antibody, human IgG1, kappa, V domains shown)
VH: QVQLLQSGAAVTKPGASVRVSCEASGYNIRDYFIHWWRQAPGQGLQWVGWINPKTGQPNNPRQFQGRVSLTRHASWDFDTFSFYMDLKALRSDDTAVYFCARQRSDYWDFDVWGSGTQVTVSS
VL: DIQMTQSPSSLSARVGDTATITCQANGYLNWYQQRRGKAPKLLIYDGSKLERGVPARFSGRRWGQEYNLTINNLQPEDVATYFCQVYEFFGPGTRLDLKR
Regarding B1, the neutralization IC50 was 0.16 mg/L in test [1], 3.54 mg/L in test [2] and 4.35 mg/L in test [3].

B2: 2.2.13-1 (antibody, human IgG1, kappa, V domains shown)
VH: QVHLSQSGAAVTKPGASVRVSCEASGYKIRDHFIHWWRQAPGQGLQWVGWINPKTGQPNNPRQFQGRVSLTRHASWDFDTFSFYMDLKAVRSDDTAIYFCARQRSDYWDFDVWGSGTQVTVSS
VL: DIQMTQSPSSLSARVGDRATITCQANGYLNWYQQRRGKAPKLLIYDGSKLERGVPARFSGSRWGQEYILTISSLQPEDVATYFCQVYEFFGPGTRLDLKR
In the case of B2, the neutralization IC50 was 1.48 mg/L in test [1], more than 50 mg/L in test [2] and 3.8 mg/L in test [3].

B3: 1.1.104-1 (antibody, human IgG1, kappa, V domains shown)
VH: QVQLLQSGAAVTKPGASVRVSCEASGYNIRDYFIHWWRQAPGQGLQWVGWINPKTGQPNNPRQFQGRVSLTRHASWDFDTFSFYMDLKALRSDDTAVYFCARQRSDYWDFDVWGSGTQVTVSS
VL: DIQMTQSPSSLSASVGDTATITCQANGYLNWYQQRRGKAPKLLIYDGSKLERGVPSRFSGRRWGQEYTLTINNLQPEDIATYFCQVYEFFGPGTRLDLKR
Take B3: the neutralization IC50 was 0.45 mg/L in test [1], more than 50 mg/L in test [2] and 5.13 mg/L in test [3].

B4: 2.2.15-1 (antibody, human IgG1, kappa, V domains shown)
VH: QVHLSQSGAAVTKPGASVRVSCEASGYKIRDHFIHWWRQAPGQGLQWVGWINPKTGQPNNPRQFQGRVSLTRHASWDFDTFSFYMDLKAVRSDDTAIYFCARQRSDYWDFDVWGSGTQVTVSS
VL: DIQMTQSPSSLSARVGDTATITCQANGYLNWYQQRRGKAPKLLIYDGSKLERGVPARFSGRRWGQEYTLTINNLQPEDVATYFCQVYEFFGPGTRLDLKR
With B4, the neutralization IC50 in test [1] is 0.37 mg/L; in test [2], more than 50 mg/L; in test [3], 1.99 mg/L.

B5: 3.1.12-1 (antibody, human IgG1, kappa, V domains shown)
VH: QVQLLQSGAAVTKPGASVRVSCEASGYNIRDYFIHWWRQAPGQGLQWVGWINPKTGQPNNPRQFQGRVSLTRHASWDFDTFSFYMDLKALRSDDTAVYFCARQRSDYWDFDVWGSGTQVTVSS
VL: DIQMTQSPSSLSARVGDTATITCQANGYLNWYQQRRGKAPKLLIYDGSKLERGVPARFSGRRWGQEYILTINNLQPEDVATYFCQVYEFFGPGTRLDLKR
Take B5: the figures for the neutralization IC50 in test [1], in test [2] and in test [3] were 2.41 mg/L, more than 41 mg/L and 24.5 mg/L, respectively.

B6: 1.1.119-1 (antibody, human IgG1, kappa, V domains shown)
VH: QVQLLQSGAAVTKPGASVRVSCEASGYNIRDYFIHWWRQAPGQGLQWVGWINPKTGQPNNPRQFQGRVSLTRHASWDFDTFSFYMDLKALRSDDTAVYFCARQRSDYWDFDVWGSGTQVTVSS
VL: DIQMTQSPSSLSASVGDRATITCQANGYLNWYQQRRGKAPKLLIYDGSKLERGVPSRFSGSRWGQEYTLTISSLQPEDIATYFCQVYEFFGPGTRLDLKR
Take B6: the neutralization IC50 in test [1] is 0.39 mg/L; in test [2] it was more than 50 mg/L; in test [3] it was 6.92 mg/L.

B7: 2.2.9-1 (antibody, human IgG1, kappa, V domains shown)
VH: QVHLSQSGAAVTKPGASVRVSCEASGYKIRDHFIHWWRQAPGQGLQWVGWINPKTGQPNNPRQFQGRVSLTRHASWDFDTFSFYMDLKAVRSDDTAIYFCARQRSDYWDFDVWGSGTQVTVSS
VL: DIQMTQSPSSLSARVGDTATITCQANGYLNWYQQRRGKAPKLLIYDGSKLERGVPARFSGRRWGQEYNLTINNLQPEDVATYFCQVYEFFGPGTRLDLKR
For the molecule B7, the neutralization IC50 in test [1] came to 0.15 mg/L; in test [2], 13.1 mg/L; in test [3], 1.75 mg/L.

B8: 2.3.15-1 (antibody, human IgG1, kappa, V domains shown)
VH: QVHLSQSGAAVTKPGASVRVSCEASGYNIRDYFIHWWRQAPGQGLQWVGWINPKTGQPNNPRQFQGRVSLTRHASWDFDTFSFYMDLKAVRSDDTAIYFCARQRSDYWDFDVWGSGTQVTVSS
VL: DIQMTQSPSSLSARVGDTATITCQANGYLNWYQQRRGKAPKLLIYDGSKLERGVPARFSGRRWGQEYTLTINNLQPEDVATYFCQVYEFFGPGTRLDLKR
Regarding B8, the neutralization IC50 in test [1] was 0.85 mg/L; in test [2], more than 50 mg/L; in test [3] it was 5.93 mg/L.

B9: 1.1.117-1 (antibody, human IgG1, kappa, V domains shown)
VH: QVQLLQSGAAVTKPGASVRVSCEASGYNIRDYFIHWWRQAPGQGLQWVGWINPKTGQPNNPRQFQGRVSLTRHASWDFDTFSFYMDLKALRSDDTAVYFCARQRSDYWDFDVWGSGTQVTVSS
VL: DIQMTQSPSSLSASVGDTATITCQANGYLNWYQQRRGKAPKLLIYDGSKLERGVPSRFSGRRWGQEYILTINNLQPEDIATYFCQVYEFFGPGTRLDLKR
B9: the results for the neutralization IC50 in test [1], in test [2] and in test [3] were 3.03 mg/L, more than 50 mg/L and 16.9 mg/L, respectively.

B10: 2.3.13-1 (antibody, human IgG1, kappa, V domains shown)
VH: QVHLSQSGAAVTKPGASVRVSCEASGYNIRDYFIHWWRQAPGQGLQWVGWINPKTGQPNNPRQFQGRVSLTRHASWDFDTFSFYMDLKAVRSDDTAIYFCARQRSDYWDFDVWGSGTQVTVSS
VL: DIQMTQSPSSLSARVGDRATITCQANGYLNWYQQRRGKAPKLLIYDGSKLERGVPARFSGSRWGQEYILTISSLQPEDVATYFCQVYEFFGPGTRLDLKR
For B10, the neutralization IC50 was 1.5 mg/L in test [1], more than 38 mg/L in test [2] and 15.5 mg/L in test [3].

B11: 3.1.13-1 (antibody, human IgG1, kappa, V domains shown)
VH: QVQLLQSGAAVTKPGASVRVSCEASGYNIRDYFIHWWRQAPGQGLQWVGWINPKTGQPNNPRQFQGRVSLTRHASWDFDTFSFYMDLKALRSDDTAVYFCARQRSDYWDFDVWGSGTQVTVSS
VL: DIQMTQSPSSLSARVGDRATITCQANGYLNWYQQRRGKAPKLLIYDGSKLERGVPARFSGSRWGQEYILTISSLQPEDVATYFCQVYEFFGPGTRLDLKR
Regarding B11, the neutralization IC50 in test [1] is 0.56 mg/L; in test [2] it was more than 21 mg/L; in test [3], 13.2 mg/L.

B12: 1.1.118-1 (antibody, human IgG1, kappa, V domains shown)
VH: QVQLLQSGAAVTKPGASVRVSCEASGYNIRDYFIHWWRQAPGQGLQWVGWINPKTGQPNNPRQFQGRVSLTRHASWDFDTFSFYMDLKALRSDDTAVYFCARQRSDYWDFDVWGSGTQVTVSS
VL: DIQMTQSPSSLSASVGDRATITCQANGYLNWYQQRRGKAPKLLIYDGSKLERGVPSRFSGSRWGQEYILTISSLQPEDIATYFCQVYEFFGPGTRLDLKR
B12: the neutralization IC50 was 2.4 mg/L in test [1], more than 50 mg/L in test [2] and 20.2 mg/L in test [3].

B13: 3.1.15-1 (antibody, human IgG1, kappa, V domains shown)
VH: QVQLLQSGAAVTKPGASVRVSCEASGYNIRDYFIHWWRQAPGQGLQWVGWINPKTGQPNNPRQFQGRVSLTRHASWDFDTFSFYMDLKALRSDDTAVYFCARQRSDYWDFDVWGSGTQVTVSS
VL: DIQMTQSPSSLSARVGDTATITCQANGYLNWYQQRRGKAPKLLIYDGSKLERGVPARFSGRRWGQEYTLTINNLQPEDVATYFCQVYEFFGPGTRLDLKR
Regarding B13, the neutralization IC50 in test [1] was 0.49 mg/L; in test [2], more than 33 mg/L; in test [3] it was 9.1 mg/L.

B14: 2.3.9-1 (antibody, human IgG1, kappa, V domains shown)
VH: QVHLSQSGAAVTKPGASVRVSCEASGYNIRDYFIHWWRQAPGQGLQWVGWINPKTGQPNNPRQFQGRVSLTRHASWDFDTFSFYMDLKAVRSDDTAIYFCARQRSDYWDFDVWGSGTQVTVSS
VL: DIQMTQSPSSLSARVGDTATITCQANGYLNWYQQRRGKAPKLLIYDGSKLERGVPARFSGRRWGQEYNLTINNLQPEDVATYFCQVYEFFGPGTRLDLKR
As to B14, the results for the neutralization IC50 in test [1], in test [2] and in test [3] were 0.22 mg/L, 11.1 mg/L and 2.56 mg/L, respectively.

B15: 2.2.12-1 (antibody, human IgG1, kappa, V domains shown)
VH: QVHLSQSGAAVTKPGASVRVSCEASGYKIRDHFIHWWRQAPGQGLQWVGWINPKTGQPNNPRQFQGRVSLTRHASWDFDTFSFYMDLKAVRSDDTAIYFCARQRSDYWDFDVWGSGTQVTVSS
VL: DIQMTQSPSSLSARVGDTATITCQANGYLNWYQQRRGKAPKLLIYDGSKLERGVPARFSGRRWGQEYILTINNLQPEDVATYFCQVYEFFGPGTRLDLKR
B15: the neutralization IC50 in test [1] is 2.1 mg/L; in test [2], more than 50 mg/L; in test [3], 7.08 mg/L.

B16: 3.1.7-1 (antibody, human IgG1, kappa, V domains shown)
VH: QVQLLQSGAAVTKPGASVRVSCEASGYNIRDYFIHWWRQAPGQGLQWVGWINPKTGQPNNPRQFQGRVSLTRHASWDFDTFSFYMDLKALRSDDTAVYFCARQRSDYWDFDVWGSGTQVTVSS
VL: DIQMTQSPSSLSARVGDRATITCQANGYLNWYQQRRGKAPKLLIYDGSKLERGVPARFSGSRWGQEYTLTISSLQPEDVATYFCQVYEFFGPGTRLDLKR
On to B16, for which the neutralization IC50 is 0.3 mg/L in test [1], more than 50 mg/L in test [2] and 5.65 mg/L in test [3].

B17: 2.2.7-1 (antibody, human IgG1, kappa, V domains shown)
VH: QVHLSQSGAAVTKPGASVRVSCEASGYKIRDHFIHWWRQAPGQGLQWVGWINPKTGQPNNPRQFQGRVSLTRHASWDFDTFSFYMDLKAVRSDDTAIYFCARQRSDYWDFDVWGSGTQVTVSS
VL: DIQMTQSPSSLSARVGDRATITCQANGYLNWYQQRRGKAPKLLIYDGSKLERGVPARFSGSRWGQEYTLTISSLQPEDVATYFCQVYEFFGPGTRLDLKR
As to B17, the neutralization IC50 in test [1] is 0.27 mg/L; in test [2], more than 50 mg/L; in test [3], 1.58 mg/L.

B18: 2.3.12-1 (antibody, human IgG1, kappa, V domains shown)
VH: QVHLSQSGAAVTKPGASVRVSCEASGYNIRDYFIHWWRQAPGQGLQWVGWINPKTGQPNNPRQFQGRVSLTRHASWDFDTFSFYMDLKAVRSDDTAIYFCARQRSDYWDFDVWGSGTQVTVSS
VL: DIQMTQSPSSLSARVGDTATITCQANGYLNWYQQRRGKAPKLLIYDGSKLERGVPARFSGRRWGQEYILTINNLQPEDVATYFCQVYEFFGPGTRLDLKR
In the case of B18, the neutralization IC50 in test [1] was 1.92 mg/L; in test [2], more than 50 mg/L; in test [3] it was 23.8 mg/L.
